# Source: patent US20050287542A1 (YALE UNIVERSITY, published 2005)
# Ends that are not written are not given here.
# Target: T1, GST-KIXY650A (Y650A variant of CBP KIX) (UniProt P45481 586-665, limits assumed)
# T1 construct: domain: KIX; not shown: GST tag
# Assay: fluorescence polarization, 25 nM fluorescein-labelled peptide, GST-KIXY650A titrated
# T1 sequence (P45481 586-665 Y650A limits assumed): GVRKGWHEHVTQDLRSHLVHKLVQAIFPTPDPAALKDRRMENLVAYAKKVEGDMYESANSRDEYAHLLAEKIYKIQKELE
binder,measurement,value
"GISWPTFEGDDAPVRRLSFFYILLDLYLDAPGVC(acetamidofluorescein)-NH2 (designed binder, also called PPKID6 (unphosphorylated)) [PPKID6^U]",EC50 (read off the curve),~700 nM
